Measurements: the DeepSol protein solubility set

Assay: soluble on expression in E. coli; label from the status in PepcDB or PDB records

Soluble on expression in E. coli, not soluble:
MGSDKIHHHHHHMSALYQALPAVDKLLKTPQGEQLVAEFGHSATVNMCRDLLQQAREHIKRHENLPHFLQNTDATFQHLKEQLLLQQQVNIKTVHNLTGTVLHTNLGRALWSPAAQQAALDAMQGNVALEYDLSAGERSHRDNYISALMQQLTGAEAACVVNNNAAAVLLMLATFAQGKEVIISRGELIEIGGAFRIPDIMAQAGCKLVEVGTTNRTHLKDYRNAINENTAFLMKVHSSNYQICGFTHSVDEQELADLGKEFGIPVITDLGSGALMDLKQFGLPEEPTVQEKLQHGVDLISFSGDKLLGGPQAGIIVGKKALIQQLQAHPLKRVLRCDKVTLAGLEATFRLYLQPEKITEKLTALLLLTQPMERLQAQAEQLKVRLENRLNTNYVIAIEPSEAQIGSGSQPLARIPSVAVTIAPASEKTPAKTTALFARLLALPQPVIGRIERDKIWLDLHSLASLDRLLNSLETL
MGSDKIHHHHHHMSANRLPVTVVTGFLGSGKTTLLRHLLREGNQRLAVVVNEFGTVGLDGDLLKNCGLCPDDEVDERIVELNNGCLCCTVQEDFLPAMEALLLRSNQLDGIIIETSGLALPKPLLQALNWPAIRNKVFINGVVTLVDGYALSNGSPVSDLKSINEQMTNDNSIDHITPIDELFRDQLISADLVLVSRSDLLSAKDFLFVEEEVKKRGNSNANVLPISNGIIEPSVILGLCKEQNNIYRLDQNNQNQNQNQNHDHDHDHDHDHDHVDVISDHLRMETPIDQDVLREMFLRLVPEYQILRVKGKCWIEGKALPLQIQMVGPRFNSWFEAANENAWQPRQSGIDIVFLSLREGVKEAVVNSLCISTRIK
MGSDKIHHHHHHMSAPLLSVRDLSVAFHQGESQSLAVDHVSFDIAPGEILALVGESGSGKSVSAASILKLLPYPAASHPSGQILFDGRDLLTLSEPALRAVRGNDITMIFQEPMTSLNPLHSIEQQIGEILELHQSLTGDAARKRTLELLLQVGIREPEKRLSAFPHELSGGQRQRVMIAMALANRPKLLVADEPTTALDVTVQAQILELLAGLKREHGMSMLFITHDLGIVRKFADRVCVMTGGKIVESGPVEAIFANPQHAYTRKLLASEPRGVPPETDLAKPVVMEGQEIRVWFPIKAGFLRRVVDNVKAVDGVDLTLRAGQTLGVVGESGSGKTTLGLALARLISSRGRIGFLGKNIDGYSFKQMRPLRDRLQVVFQDPFGALSPRMSVGDIIAEGLRVHERGLTAAERDRRVCWALEEVGLDIATRWRYPHEFSGGQRQRIAIARAMVLKPRFVMLDEPTSALDMTVQAQVVDLLRDLQSRHDLAYLFISHDLKVVKALANDIIVMRSGKVVEQGPAQEVFTAPKQDYTKALLAAAFDLKAMNIGGVSQ
MGSDKIHHHHHHMSARNETGYERVLVPVGDKSDPNMLTELSSILVDPRRGAVRFTHVTTDRSFVGSQENWRTGSDSVAESQHTLREEGIESTGTIRTASSALDGILEEAEEYEADAILIGWTDKDSVSSLVDKLLRKAGCDVIVFSADRDPIDTDSILVPVVVKPDANRLQMLAIMSQRTGASITFTYVTGDEGTDEEGRGLLDQSAERLAEYGVQAETELKSASSAVDALGQLSEDYDVMVIGTSRGWWLRKTLFGRKTDKIAQEAQCSLLMHKWQGEVPPES
MGSDKIHHHHHHMSDEKKSTDIDLKNLKAGGFIKERGKDLFTVRLRVPGGRMPVARLKKIAEVAEKYGQGMVHLSVRQSVELININFRDFDAVVAELGEGTQKVASCGARVRVPTACGGCEYNPNGLVDTQKSALEVDEKLFGTSTGHHKFKVGFAGCPFDCPKSATNDVGFQGAIWPVLYADECIGCGLCDKSCTEDAIVMGDDGKPRFIPENCLYCGDCLKVCPSEAWRAEKKGYTVRIGGKWGRRPLVGTLFAEFLPEEQVFDFIAAVLDWYKEKAEGQGRIRLGDVIRAEGPDALLGYLRERFPAAVVDATIPPQRIATQIGKEKRVP
MGSDKIHHHHHHMSDIELLETLAGTDQPRVMATIIHVEGSSYRKEGAMMLFQEDGTQVGLLSGGCLETDLTIKAQKVWQEQLPRTVVYDLSSEDDLSWGQGSGCNGTISVLLEPVDLKLRQHLKRVYDYLCAGKSVFHVKKLSTSGAVLEYAFILDESVYFGEWHSGHPVEWIRKIDENEEPLMFTHIYSPKERLIIFGAGPDVPPLVTFASNVGFYTVVTDWRPNQCEKHFFPDADEIIVDFPADFLRKFLIRPDDFVLIMTHHFQKDQEILHFLLEKELRYIGILGSKERTRRLLQNRKPPDHLYSPVGLSIDAQGPEEIAISIVAQLIQLIRSRKQASSPFSYLFQPESCKH
